Experimental data: US20260184814A1, “BROADLY NE[…] INFLUENZA NEURAMINIDASE” (priority 2022, published 2026)
Read-outs that look alike come from different tables or passages of the source.

How the values were obtained:
[1] = target: human FcγRIIa (R131 allele) (human) (UniProt P12318); assay: MSD [cont'd]
human FcγRIIb (human) [2] = target: human FcγRIIb (human) (UniProt P31994); assay: MSD [cont'd]
[3] = target: human FcγRIIIa (V158 allele) (human) (UniProt P08637); assay: MSD [cont'd]
[4] = target: human FcγRIIIa (F158 allele) (human) (UniProt P08637); assay: MSD [cont'd]
human FcγRIIIa (F158 allele) (human), sequence (P08637 17-208 limits assumed): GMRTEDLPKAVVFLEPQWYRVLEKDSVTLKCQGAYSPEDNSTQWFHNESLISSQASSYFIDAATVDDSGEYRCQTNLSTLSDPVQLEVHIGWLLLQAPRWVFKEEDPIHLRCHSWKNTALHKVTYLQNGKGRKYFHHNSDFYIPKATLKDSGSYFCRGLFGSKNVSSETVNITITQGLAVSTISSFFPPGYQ

human FcRn (human) [5] = target: human FcRn (human) (UniProt P55899); assay: MSD [cont'd]
human FcRn (human), sequence (P55899 24-297 limits assumed, chain 1 of 2): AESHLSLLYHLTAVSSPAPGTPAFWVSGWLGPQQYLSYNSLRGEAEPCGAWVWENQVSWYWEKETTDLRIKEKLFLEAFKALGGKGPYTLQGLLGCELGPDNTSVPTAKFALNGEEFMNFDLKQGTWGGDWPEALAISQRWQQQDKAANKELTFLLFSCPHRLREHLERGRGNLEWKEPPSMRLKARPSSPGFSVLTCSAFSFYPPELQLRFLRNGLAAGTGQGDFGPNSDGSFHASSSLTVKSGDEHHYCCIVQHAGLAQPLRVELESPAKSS
human FcRn (human), sequence (chain, as listed by the source limits assumed, chain 2 of 2): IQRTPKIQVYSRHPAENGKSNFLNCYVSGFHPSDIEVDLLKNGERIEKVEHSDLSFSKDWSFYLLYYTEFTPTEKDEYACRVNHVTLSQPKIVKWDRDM

[6] = target: human FcγRIIa (H131 allele) (human) (UniProt P12318); assay: MSD [cont'd]
human FcγRIIa (H131 allele) (human), sequence (P12318 34-218 limits assumed): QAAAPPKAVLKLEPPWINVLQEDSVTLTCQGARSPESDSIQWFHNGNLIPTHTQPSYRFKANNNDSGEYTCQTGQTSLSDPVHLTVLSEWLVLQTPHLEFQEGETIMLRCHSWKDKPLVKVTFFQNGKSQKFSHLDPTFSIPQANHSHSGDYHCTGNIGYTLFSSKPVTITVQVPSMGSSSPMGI

human C1q (human) [7] = target: human C1q (human) (UniProt P02745); assay: MSD [cont'd]
human C1q (human), sequence (P02745 23-245 limits assumed, chain 1 of 3): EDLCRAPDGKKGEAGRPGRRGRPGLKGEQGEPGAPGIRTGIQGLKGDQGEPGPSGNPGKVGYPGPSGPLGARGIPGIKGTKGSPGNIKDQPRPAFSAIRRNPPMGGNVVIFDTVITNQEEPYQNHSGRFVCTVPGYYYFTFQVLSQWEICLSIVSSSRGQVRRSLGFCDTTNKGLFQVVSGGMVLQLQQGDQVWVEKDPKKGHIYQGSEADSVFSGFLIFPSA
human C1q (human), sequence (P02746 28-253 limits assumed, chain 2 of 3, further chain): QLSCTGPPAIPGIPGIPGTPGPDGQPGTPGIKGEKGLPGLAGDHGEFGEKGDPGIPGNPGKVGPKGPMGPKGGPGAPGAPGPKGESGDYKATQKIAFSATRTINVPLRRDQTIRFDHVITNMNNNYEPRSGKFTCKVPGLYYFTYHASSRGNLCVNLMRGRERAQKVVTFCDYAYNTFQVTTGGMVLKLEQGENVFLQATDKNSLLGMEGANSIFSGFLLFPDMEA
human C1q (human), sequence (P02747 29-245 limits assumed, chain 3 of 3, further chain): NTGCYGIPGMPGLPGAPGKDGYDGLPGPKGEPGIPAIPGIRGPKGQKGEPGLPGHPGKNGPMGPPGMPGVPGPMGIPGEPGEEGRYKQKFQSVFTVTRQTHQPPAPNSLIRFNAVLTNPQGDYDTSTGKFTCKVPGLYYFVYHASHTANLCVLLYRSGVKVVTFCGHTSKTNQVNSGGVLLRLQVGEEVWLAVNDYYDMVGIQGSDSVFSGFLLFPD

[8] = target: human FcγRIIa (R131 allele) (human) (UniProt P12318); assay: MSD
human FcγRIIb (human) [9] = target: human FcγRIIb (human) (UniProt P31994); assay: MSD
[10] = target: human FcγRIIa (H131 allele) (human) (UniProt P12318); assay: MSD
[11] = target: human FcγRIIIa (V158 allele) (human) (UniProt P08637); assay: MSD [cont'd]; remark: listed apart in the source
[12] = target: human FcγRIIIa (F158 allele) (human) (UniProt P08637); assay: MSD [cont'd]; remark: listed apart in the source
human C1q (human) [13] = target: human C1q (human) (UniProt P02745); assay: MSD [cont'd]; remark: listed apart in the source
human FcRn (human) [14] = target: human FcRn (human) (UniProt P55899); assay: MSD, pH 6 [cont'd]
[15] = target: human FcγRIIIa (V158 allele) (human) (UniProt P08637)
[16] = target: human FcγRIIa (R131 allele) (human) (UniProt P12318); assay: MSD [cont'd]; remark: listed apart in the source
human FcγRIIb (human) [17] = target: human FcγRIIb (human) (UniProt P31994); assay: MSD [cont'd]; remark: listed apart in the source
human FcRn (human) [18] = target: human FcRn (human) (UniProt P55899); assay: MSD [cont'd]; remark: listed apart in the source
human FcγRIIIb (human) = human FcγRIIIb (human) (UniProt O75015); assay: MSD [cont'd]
human FcγRIIIb (human), sequence (O75015 17-200 limits assumed): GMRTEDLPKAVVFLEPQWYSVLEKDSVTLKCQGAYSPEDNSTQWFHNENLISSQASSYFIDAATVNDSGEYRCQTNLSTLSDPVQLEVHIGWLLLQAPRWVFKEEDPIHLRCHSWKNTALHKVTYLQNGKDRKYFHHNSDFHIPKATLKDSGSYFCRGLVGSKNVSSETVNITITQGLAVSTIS

[19] = target: human FcγRIIa (H131 allele) (human) (UniProt P12318); assay: MSD [cont'd]; remark: listed apart in the source
[20] = target: human FcγRIIIa (F158 allele) (human) (UniProt P08637)
human FcγRIIb (human) [21] = target: human FcγRIIb (human) (UniProt P31994)
[22] = target: human FcγRIIIa (V158 allele) (human) (UniProt P08637); remark: listed apart in the source
[23] = target: human FcγRIIIa (F158 allele) (human) (UniProt P08637); remark: listed apart in the source
[24] = target: human FcγRIIa (H131 allele) (human) (UniProt P12318)

human FcγRIIIa (V158 allele) (human), sequence (P08637 17-208 F176V limits assumed): as the sequence (P08637 17-208 limits assumed) above, with F160V counted along it
human FcγRIIa (R131 allele) (human), sequence (P12318 34-218 H167R limits assumed): as the sequence (P12318 34-218 limits assumed) above, with H134R counted along it
human FcγRIIb (human), sequence (P31994 43-217 limits assumed): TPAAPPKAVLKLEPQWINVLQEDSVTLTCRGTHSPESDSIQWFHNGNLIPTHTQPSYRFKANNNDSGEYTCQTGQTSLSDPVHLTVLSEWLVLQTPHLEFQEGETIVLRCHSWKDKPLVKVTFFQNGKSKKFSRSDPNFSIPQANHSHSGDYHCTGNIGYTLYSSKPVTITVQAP

**Q.** Which fold-change vs wt [1] does the source give for IgG1 antibody with Fc variant G236Y here?
**A.** 0.42 fold

**Q.** And the fold-change vs wt (human FcγRIIb (human) [2])?
**A.** 0.55 fold

**Q.** What about the fold-change vs wt [3] of the same substance?
**A.** 0.12 fold

**Q.** And the fold-change vs wt [4]?
**A.** 0.56 fold

**Q.** What about the fold-change vs wt (human FcRn (human) [5]) of the same substance?
**A.** 1.05 fold

**Q.** What about the fold-change vs wt [6] of the same substance?
**A.** 0.74 fold

**Q.** And the fold-change vs wt (human C1q (human) [7])?
**A.** 3.22 fold

**Q.** What about the fold-change to WT Fc [8] of the same substance?
**A.** 0.418 fold

**Q.** And the fold-change to WT Fc (human FcγRIIb (human) [9])?
**A.** 0.547 fold

**Q.** And the fold-change to WT Fc [10]?
**A.** 0.735 fold

**Q.** And the fold-change to WT Fc [11]?
**A.** 0.116 fold

**Q.** And the fold-change to WT Fc [12]?
**A.** 0.559 fold

**Q.** What about the fold-change to WT Fc (human C1q (human) [13]) of the same substance?
**A.** 3.25 fold

**Q.** What about the fold-change to WT Fc (human FcRn (human) [14]) of the same substance?
**A.** 1.05 fold

**Q.** For “IgG1 antibody with Fc variant E345K_G236S_L235Y_S267E”, which fold-change vs wt [1] is on record?
**A.** 9.22 fold

**Q.** And the fold-change vs wt (human FcγRIIb (human) [2])?
**A.** 1.71 fold

**Q.** What about the fold-change vs wt [3] of the same substance?
**A.** 0.05 fold

**Q.** And the fold-change vs wt [4]?
**A.** 0.29 fold

**Q.** What about the fold-change vs wt (human FcRn (human) [5]) of the same substance?
**A.** 0.9 fold

**Q.** And the fold-change vs wt [6]?
**A.** 0.53 fold

**Q.** And the fold-change vs wt (human C1q (human) [7])?
**A.** 2.35 fold

**Q.** What does the source list for IgG1 antibody with Fc variant G236W?
**A.** fold-change vs wt [1]: 0.47 fold; fold-change vs wt (human FcγRIIb (human) [2]): 0.65 fold; fold-change vs wt [3]: 0.12 fold; fold-change vs wt [4]: 0.54 fold; fold-change vs wt (human FcRn (human) [5]): 1.09 fold; fold-change vs wt [6]: 1.06 fold; fold-change vs wt (human C1q (human) [7]): 3.63 fold; fold-change to WT Fc [8]: 0.469 fold; fold-change to WT Fc (human FcγRIIb (human) [9]): 0.652 fold; fold-change to WT Fc [10]: 1.06 fold; fold-change to WT Fc [11]: 0.117 fold; fold-change to WT Fc [12]: 0.541 fold; fold-change to WT Fc (human C1q (human) [13]): 3.66 fold; fold-change to WT Fc (human FcRn (human) [14]): 1.09 fold

**Q.** With “IgG1 antibody with Fc variant E272R_L309T_S219Y_S267E” as the substance, how does the fold-change vs wt [1] read?
**A.** 10.7 fold

**Q.** What about the fold-change vs wt (human FcγRIIb (human) [2]) of the same substance?
**A.** 4.77 fold

**Q.** What about the fold-change vs wt [4] of the same substance?
**A.** 0.37 fold

**Q.** And the fold-change vs wt (human FcRn (human) [5])?
**A.** 0.98 fold

**Q.** And the fold-change vs wt [6]?
**A.** 0.33 fold

**Q.** And the fold-change vs wt (human C1q (human) [7])?
**A.** 2.53 fold

**Q.** With L309T_P238D_P396L_T366A-afuc (antibody) as the substance, how does the FcγR reporter signaling, fold to wt-fucose [cont'd] [15] read?
**A.** 0.16 fold

**Q.** G236A_S239D_A330L_I332E-afuc (antibody) was tested. Which fold to wt-fucose [16] did it give?
**A.** 7.58 fold

**Q.** What about the fold to wt-fucose (human FcγRIIb (human) [17]) of the same substance?
**A.** 1.21 fold

**Q.** What about the fold to wt-fucose [11] of the same substance?
**A.** 75.6 fold

**Q.** And the fold to wt-fucose [12]?
**A.** 730 fold

**Q.** What about the fold to wt-fucose (human FcRn (human) [18]) of the same substance?
**A.** 0.96 fold

**Q.** And the fold to wt-fucose (human FcγRIIIb (human))?
**A.** 94.3 fold

**Q.** What about the fold to wt-fucose [19] of the same substance?
**A.** 3.58 fold

**Q.** And the FcγR reporter signaling, fold to wt-fucose [cont'd] [15]?
**A.** 5.16 fold

**Q.** And the FcγR reporter signaling, fold to wt-fucose [cont'd] [20]?
**A.** 11.5 fold

**Q.** Which fold-change vs wt [16] does the source give for “IgG1 antibody with Fc variant S239D_H268E_G236A” here?
**A.** 53.5 fold

**Q.** And the fold-change vs wt (human FcγRIIb (human) [17])?
**A.** 5.09 fold

**Q.** What about the fold-change vs wt [11] of the same substance?
**A.** 7.9 fold

**Q.** And the fold-change vs wt [12]?
**A.** 16.3 fold

**Q.** What about the fold-change vs wt (human FcRn (human) [18]) of the same substance?
**A.** 0.91 fold

**Q.** And the fold-change vs wt (human FcγRIIIb (human))?
**A.** 3.04 fold

**Q.** What about the fold-change vs wt [19] of the same substance?
**A.** 11.7 fold

**Q.** And the fold-change vs wt (human C1q (human) [13])?
**A.** 0.4 fold

**Q.** What about the FcγR reporter signaling, fold-change vs wt [cont'd] (human FcγRIIb (human) [21]) of the same substance?
**A.** 1.8 fold

**Q.** What about the FcγR reporter signaling, fold-change vs wt [cont'd] [22] of the same substance?
**A.** 5.22 fold

**Q.** What about the FcγR reporter signaling, fold-change vs wt [cont'd] [23] of the same substance?
**A.** 12.8 fold

**Q.** What about the FcγR reporter signaling, fold-change vs wt [cont'd] [24] of the same substance?
**A.** 2.15 fold
